Article PMC4108065, “Inflammation and pancreatic cancer: molecular and functional interactions between S100A8, S100A9, NT-S100A8 and TGFβ1” (Cell Communication and Signaling : CCS, 2014)

How the values were obtained:
[1] = S100A8 proteolysis assay in Capan1 conditioned media (MALDI-TOF/MS); format: in vitro ADME, human; settings: 3 μM S100A8, Capan1 conditioned medium, 24 hours at 37°C, MALDI-TOF/MS low molecular weight spectra
Experimental: To obtain BxPC3 and Capan1 conditioned media (CM), 400,000 cells were cultured (75 cm^2 flasks) for 96 hours in RPMI supplemented with 1% FCS and 0.1% gentamycin. In parallel, Ukrain (Nowicky Pharma, Wien, Austria) treated Capan1 CM were obtained as above, the difference being that Ukrain was added 24 hours after cells had been seeded at the final concentration of 5 μM. Complete culture media maintained in a cell culture incubator for 96 hours (negative control), Capan1 and Ukrain-treated Capan1 CM were centrifuged at 1,500 rpm for 10 min, and then immediately mixed with 3 μM S100A8 or 2.5 μM S100A9 (ProSpec-Tany TechnoGene, Ness Ziona, Israel) and maintained at 37°C overnight before MALDI-TOF/MS analyses. Complete culture media, BxPC3 and Capan1 CM, treated as described above, were incubated at 37°C with 200 μM of the S100A8 1–19 N-terminal aminoacid sequence (NT-S100A8) (Primm, Milano, Italy) for 1, 2, 3, 4, 5, 6, 12 and 24 hours before MALDI-TOF/MS analyses. At least three independent sets of experiments were performed for both assays.
Cell culture media were first desalted and purified by ZipTip C18 pipette tips, following the procedure described in the ZipTip user’s guide. […]

[2] = system: BxPC3-SMAD4+ IκBα and Akt phosphorylation; assay: Signaling western blot in BxPC3-SMAD4+ cells; format: cell-based, human; settings: BxPC3-SMAD4+ vs BxPC3, 10 min, 10 nM S100A8
Experimental: The pancreatic cancer cell lines used were: Panc1 and Suit2, donated by Prof Aldo Scarpa (University of Verona, Italy); BxPC3, from Dr Andrea Galli (University of Florence, Italy); MiaPaCa2, Capan1 and the human embryonic kidney Hek293 cell lines, supplied by the American Type Culture Collection (Manassas, VA, USA). BxPC3, Capan1 and Panc1 were cultured in RPMI (Gibco/BRL, Gaithhersburg, MD, USA) supplemented with 10% (BxPC3 and Panc1) and 20% (Capan1) fetal calf serum (FCS) (Gibco/BRL), 1% L-glutamine (Gibco/BRL) and 0.1% gentamycin (Gibco/BRL). MiaPaCa2 and Hek293 were cultured in DMEM (Gibco/BRL) supplemented with 10% FCS, 2% L-glutamine and 0.1% Gentamycin. BxPC3 cells were transfected with the expression vector pBK-cytomegalovirus (CMV)-SMAD4/DPC4, as previously described. One SMAD4/DPC4-expressing clone (BxPC3-SMAD4+) was used for the experiments. Smad4 silencing of MiaPaCa2 cells was performed as previously described.
Five million cells were seeded in Petri dishes (ø 10 cm) and cultured for 24 hours in their respective complete media prior to starting the experiments. […] Lysates were centrifuged for 10 min at 14,000 rpm at 4°C and, in the supernatants, total proteins were measured using the Bio-Rad protein assay (Bio-Rad Laboratories, Milano, Italy). […]

S100A8: inflammatory calcium binding protein S100A8 (ProSpec-Tany TechnoGene)
fragmentation of S100A8 in conditioned medium [1]: a new peptide was found at 2280 m/z
IκBα phosphorylation in Smad4 expressing BxPC3 [2]: reduced IκBα phosphorylation
